# Test results: the supplement of paper PMC11502859
# Test system: HEK293T
# Test: median enrichment of reporter reads in eGFP-reduced (low/intermediate) vs eGFP-high sorted cells (eGFP-extension fusion abundance) (ratio); higher = stronger loss of eGFP-fusion protein abundance (more destabilising extension)
# 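Further: lentiviral eGFP-IRES-mCherry reporter pool sorted by FACS 96 h post-transduction, gated on mCherry-high cells, Illumina read counts normalized per million, median across four biological replicates.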
row,Substance,median enrichment
1,QIRI [TADA1],0.507
2,QISTNKSKTNSRIPDCPIPI [PTCHD3],2.49
3,QKCGKAFTKSSYCVQHLKFNTEQMQYKCNDSGRTFIILEGL [ZNF736],4.28
4,QKGRAQQCK [IRX2],1.1
5,QKGSGPGIHVGGRGRGGRREGRGEIHTVDTLTSWPKSLPQDLPDLHGQASYGGVSISFFLFLFPGLRASWGPRFTNSPTPLKL [AQP1],6.27
6,QKILPSLVVGTDRIHLTQTSSFTDFNYLFLKT [WSB1],2.9
7,QKKPL [NFATC2],0.453
8,QKMTQKLEPTKLLTPC [ADGRL3],1.01
9,QKPYEYCEYGKAI [ZNF569],0.563
10,QKQPQGSINNICQLNLLSSNAKKGEWRVQD [PAPOLA],2.06
11,QKRMMMTFIIHKQWEVQQCLGADLRRRMIFLSLLTT [MROH9],20.2
12,QKVPLANCLEAQHNPKALFR [HIST1H1E],2.26
13,QLDHDLVQ [TRAT1],0.266
14,QLFLKMAIVYEICISVSLYKF [NUP133],11.5
15,QLFTLFFYIYLYIYIKIGS [CBX3],10.2
16,QLGAHIKCFILHTWTLKPGCACILKQQSSHSFRQMFSVSEENMFSEEKTFRQMFSEEKKGKLGVGRC [PRAME],9.08
17,QLGPAWKASAPCTHTDRNFRDCGVETGAQALQRVALKL [RAB36],7.77
18,QLICYVNLSFAFLFD [DGKB],13.9
19,QLLVPPSLLVIRFPRLTP [PITRM1],9.11
20,QLPMPPQNWLLRVN [TSC22D1],4.17
21,QLRILKRSHGKTS [NBN],7.35
22,QLRTLPFFPLSSLPLPFLPIYPFPSSKSTQGEENKMTTQDLVAKILHSKSSFV [FGF12],4.18
23,QLSLPPQPGSPALESSVLHAEDAPSLDWSGLLPNDIAQRLWSRHPAEWGPRGCQLGALPLAATLWSGRVLHHQEDPILSSVSC [INAFM1],4.8
24,QLVKTMGVVLTQPPIPQGASGQSFWHCSRIPPSWCVWRVGKAGRDINLEENT [ARHGEF25],6.94
25,QLYHYSRSSSQHHLLATWDV [GCG],16.8
26,QLYSTKIFKDWFLF [DIS3],11.1

row,Substance,median enrichment
1,QLYVGLSLEYVWSPGLSRLEQQSLLLAYHRD [ZFYVE21],9.76
2,QMTKP [RBFOX1],0.233
3,QNASVRIKD [BORA],0.475
4,QNILCTALVISDLD [MALSU1],7.03
5,QNIQVINELCYGIIALLYAG [CC2D2B],8.94
6,QNIYRVTKNKQSKKKTVY [LRRC4C],31.9
7,QNLREPVV [CEP89],0.464
8,QNNVSYFSIKDHLKLLIPNIN [DMAC2L],12.2
9,QNRIEQNRIE [PCSK5],0.813
10,QNTFLL [CFAP97],0.56
11,QPDKRNKLFFLMDCSKRSLKIPWLSTYKTYYLNKEEYYVNIHIKNFGGFEKNELYIYKSTLKTNFNCLKQLF [NLGN1],24
12,QPETGGSPPARSGASSCQSSWCYPLNPSAATATVGLRVSEQERKDKLFVVPTMLRFGNPGVFPGGLRKQSL [TNFAIP3],4.84
13,QPGT [ZNF445],1.04
14,QPHGAVLLMLEAS [ESPL1],6.52
15,QPKTRGSDLC [EPC2],0.415
16,QPPAILPHPPPSPPVSTWSALPHPPPTELGCITFFHLKERSRF [MROH5],4.47
17,QPPARQRGHRRASPECRPWVAGPGSLVPPGGHRHRLAWQAGPLCHPLLGACRPFPSTPQVFQALLPQFPKWNHLTSAAPDLPG [SECTM1],4.68
18,QPSSCKAIAKQGGSLQSMPGDYVSQGGPMGMSMAQPSYTPPQMTPHPTQLRHGPPMHSYLPSHPHHPAMMMHGGPPTHPGMTM [MEIS2],3.91
19,QPTGDPDLILNRRRLRDSRRHRSCPQWTPMNPSQPGPLTKTTRTSWELWDSLDSAVKDD [LILRB5],1.48
20,QPWGWTVDPTSLREGGMAGCEDNSS [POLR3H],0.421
21,QPWQ [ADGRL3],0.354
22,QPWSITLPPSPGTTGPITFECCIWISRCLCGSLPHFSWT [UBE2Q1],7.69
23,QQFSHFLHLSDRTHHLCLP [ZDHHC15],20.5
24,QQLRLHQRQHTKKL [BCAS3],1.16
25,QQQ [Gln03],0.325
26,QQQQ [Gln04],0.501

row,Substance,median enrichment
1,QQQQQ [Gln05],0.381
2,QQQQQQ [Gln06],0.198
3,QQQQQQQ [Gln07],0.347
4,QQQQQQQQ [Gln08],0.342
5,QQQQQQQQQ [Gln09],0.104
6,QQQQQQQQQQ [Gln10],0.317
7,QQQYYRGLNNTTKSIWIA [NCAM2],25
8,QRCEGIGETLGWLVMVSIAGHQKLDS [B4GALNT2],4.77
9,QRFSSEKNLCLIF [PHACTR3],9.78
10,QRHASFTISGKRTHCAYSDCRVYKRQPFGYYCCKVQILQASSDICIYCHYCLWKKQGIKVPVHLMYYFL [NEUROD1],14.6
11,QRHGVLGGLMGTGACIFCWGMKLITLL [AGBL4],4.93
12,QRKKRKTALGLAYGLRGCCC [WEE2],6.66
13,QRLAPACTPAPAAGSPQSQPFGTVLTL [ABCG4],28.4
14,QRLDMLSPNEPLSSPGEGR [ISX],0.656
15,QRLMQERCEGLRAGDCAILKPPLDLRTPRVGTSRVVGQPGSLYCGFSEA [MEIS3],6.79
16,QRLQCLLRRKIKFTSSKVTLEDRALGMSFFF [OR2C3],5.9
17,QRPLPGPSPAPRAPRPGPGARQTPACAPAERRLETGATASRVQQHSRHGSGRDSAWPRGTFPGQGPGGNWHGLVPLLCCILIP [ANKRD13B],7.68
18,QRPVLVSHPCHSRSLPVPLLPKMPWLDWTPSPHDHASDCHPLPVPKSMCTPLTTGTAPPNHRHQATI [PTPRCAP],8.88
19,QRQ [GNB1],0.344
20,QRRERCASILEGQQEAELFCLDSHHGPFAENCLGFQQLHICICEL [TAFA4],18.2
21,QRRQMQTKAT [TWSG1],0.373
22,QRTTEHLVSQNGLTTVSTTYSQMSISTSVELK [CYLC1],1.57
23,QSCSIHIGLMD [ZCCHC10],0.408
24,QSFTSKFYLLCLPLLSRRSCLLPGSLTCSLS [LRRC1],18
25,QSIQQSLIRHAKI [SDHAF3],4.37
26,QSKQGRNVQVNNKSPHTLLTPWRQLLFRSFICLLQESFLPLT [SIRPD],4.67

row,Substance,median enrichment
1,QSMF [TMEM196],0.507
2,QSPSAARKCWSWSKIGFFKIFLVIREYI [PSD3],7.26
3,QSPSVLPLSPLSPWPVVVPQPLPPSTSSVSPSPRLINLLIDCDSK [ERGIC3],9.24
4,QSQEPSSLI [CNDP1],0.195
5,QSQPQLMPSQSQPPVTPSQSQPRVTPSQSQPHVTPYRSKSGKQKQSVPIPKTVSRKGTLKK [ADAM29],0.14
6,QSSAQRRGSMC [FAM49A],0.176
7,QSSF [PCNX4],0.571
8,QSSLSR [SCAF8],1.11
9,QSSQSSARP [SNX32],0.324
10,QSSYPLEEDCFQII [KDSR],0.764
11,QSTF [ST8SIA4],0.477
12,QSTGRKCFWTEVVAVEGVASSCRQTIILEILVEVPSPIRHSNMSTNALKWN [EPHA3],14.9
13,QSTLTYFQKYNFRYHANFMTSKGCCYNVLTER [TDGF1],6.46
14,QSTTALSS [GALNT4],0.487
15,QSVISFICCINV [LRP1B],11.7
16,QSWWPQPLASDTLYLKNNCAL [CALB1],5.97
17,QSYHSGC [USP32],0.623
18,QTA [FMR1],0.337
19,QTAKKEKLN [PTMA],0.399
20,QTFCSYRLKYLLPIRFFCDMCLPAVN [CCDC59],6.05
21,QTGFLSSLKRLLCLRKSICCVSLASGSRTDLQLPNWILLPRSCSEVSFYHSAL [HLA-DPB1],7.45
22,QTGHPTHLHAKILPASSLRVPW [UBL4B],4.81
23,QTGQDPSTCTC [FCN1],0.258
24,QTGRLDF [RPL24],0.466
25,QTGWPGPNP [EMILIN3],0.352
26,QTHGTDSLGN [DPF3],0.444

row,Substance,median enrichment
1,QTLCALCVRPVPAS [USP10],7.74
2,QTLGNSISCIFDQIVTSFCI [RAB18],5.83
3,QTLPFLFEFFRGKG [PCBD1],2.9
4,QTSLHFILF [FABP1],24.1
5,QTTFPKENIRGFHC [CPVL],0.323
6,QTVEWLKLLSRRIYTSDLRRETLTPQWLHLL [HIST1H2BJ],10.5
7,QTVKEGVFVWTR [DSC1],2.42
8,QVFGKQQRASPLPGGLPCRFWASFPCLSLFRCAFHL [MAP2K1],13.2
9,QVISQSIYVLSNM [PSMA1],7.19
10,QVLSPNNFFLSEVKGLKISWK [ENOSF1],10.9
11,QVNANSIVEPGV [PRKCB],0.284
12,QVPFPLLNIKLNSI [NSMAF],2.85
13,QVRLVQEHKLPPSPSPPPPGPGLKQPEDSPRGWLSPAAGSAFTWGGGAGLTLNPPPRQVGEGSHHSKCL [SLC2A4RG],2.26
14,QVTGNLSHLPFSSGTTLHKCVPRGSPFLSSSTENAARSSYPSSRGPAAMLYAPEGTLVPRKERKKRDGLWLHFLGP [VAMP8],7.27
15,QVVHIYGIWYEILICVYNT [ZNF230],47.2
16,QWLSGSMC [LYPD6],0.958
17,QWPHPHWAQARRGPAHAHTTGQGCGAGAIPAPFPGPRGLGSLPSHPGLVPPGAPTVEIRRGWNGGRGGAGGPHPSAALGLGPH [GNB2],7.88
18,QWPSDDS [COL15A1],0.307
19,QWRGEGRLGALGGWEMLASKRLTGREAGTCPQHKRQVYPGSL [BTBD18],8.86
20,QWSWLRVGEGTWA [RTP2],2.67
21,QYLTGHHRILWIFFPSFWFWFRANSCFIGTVYEAFETKNNEE [GALC],6.16
22,QYNF [PPP1R42],0.505
23,QYT [ZMYM5],0.736
24,QYTF [PNISR],1.03
